Results taken from the supplement of paper PMC9170038.

Assays:
MS2 coat protein [1] = test: apparent KD of MS2 coat protein, switch ON state; designed switch direction (-1 OFF switch, 1 ON switch): -1; higher = weaker reporter binding; conditions: FMN input: 0 or 200 uM; Eterna round: R93 (includes R88 designs)
Method in brief: (§1)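 Apparent KD stands for the median, per design, of fits to normalised cluster binding curves. The curves came from titrating on-chip-transcribed RNA switches on Illumina sequencing clusters with SNAP-549-labelled MS2 coat protein, twofold from 0.7 or 1.5 nM to 3 µM. Buffer was 100 mM Tris-HCl pH 7.5, 80 mM KCl, 4 mM MgCl2, without or with constant ligand.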

MS2 coat protein [2] = test: apparent KD of MS2 coat protein, switch OFF state (with FMN for OFF switches, without FMN for ON switches); designed switch direction (-1 OFF switch, 1 ON switch): -1; higher = weaker reporter binding; conditions: FMN input: 0 or 200 uM; Eterna round: R93 (includes R88 designs)
Method in brief: as §1

| Sequence | apparent KD of MS2 coat protein (MS2 coat protein [1]) [nM] | apparent KD of MS2 coat protein (MS2 coat protein [2]) [nM] |
| --- | --- | --- |
| AACGGGCUAGGAUAUACACAAGCCUCAGAACAAAUAAACAAACAUGAGGAUCACCCAUGUAGAAGGAGCGCAAA [Lesocerean] | 30.6 | 42.9 |
| AACUAGUGAGGAUAUACAAGAAAAAAAAAAAAAAUAAAGGGACAUGAGGAUCACCCAUGUAGAAGGCACUAACA [Diamond 69] | 37.7 | 64.9 |
| AACUGACAUGAGGAUCACCCAUGUCAGGAUAUGACAUCGAAAAAUAAAUAAAUCGUUGUCAGAAGGGACAUGAA [Design 76: Sub-opt S] | 16.3 | 14.9 |
| AACUGACAUGAGGAUCACCCAUGUCAGGAUAUGAUUUGACGAAAAAAAAAAAGUCAUAUCAGAAGGGACAUGGA [Design 81: Sub-opt UB] | 24.7 | 41.5 |
| AACUGACAUGAGGAUCACCCAUGUCAGGAUAUGCUUCAUAAAAAAAAAAAAAAAUGAUGCAGAAGGGACAUGGG [Design 32 :P Sub-opt 8] | 41.6 | 110 |
| AACUGACAUGAGGAUCACCCAUGUCAGGAUAUGCUUCAUAAAAAGAAAUAAAAAUGAUGCAGAAGGGAUAUGGG [Design 34 :P Sub-opt 10] | 24.6 | 37.1 |
| AAGAAACAUGAGGAUCACCCAUGUGAGGAUAUCCAAGAAAGAAAGAAAGAAAGAAGAAGGAGAAGGCACAAAGG [Quintus Ostorius Scapula] | 50.5 | 119 |
| AAGAAACAUGAGGAUCACCCAUGUGAGGAUAUCGAAAAGAAAAGAAAAGAAAGAAGAACGAGAAGGCACAAAGG [Neferkare (V) Tereru] | 52.7 | 76.2 |
| AAGAAACAUGAGGAUCACCCAUGUGAGGAUAUGCAAGAAAGAAAGAAAGAAAGAAGAAGCAGAAGGCACAAAGG [Gaius Turranius] | 42.4 | 65.9 |
| AAGAAACGAGGAUAUACAAAAUAAAAGAAAAGAAAGAAAGAACAUGAGGAUCACCCAUGUAGAAGGCGUAAGAA [Wahibre Ibiau] | 44.6 | 30.3 |
| AAGAACAGAGGAUAUACAUGAGGAUCACCCAUGUAAAAGAAAGAAAAGGGAAAGAAAAGUAGAAGGCUGAAGAA [Ankhkheperure Smenkhkare] | 22.9 | 42.8 |
| AAGAACCGAGGAUAUACAUGAGGAUCACCCAUGUAAAAGAAAGAAAAGGGAAAGAAAAGUAGAAGGCGGAAGAA [Aakheperenre Thutmose II] | 42.8 | 55.5 |
| AAGAACGAAGGAUAUACAAAAUAAAAGAAAAGAAAGAAAGAACAUGAGGAUCACCCAUGUAGAAGGUCGAAGAA [Awybre Hor I] | 10.5 | 25.8 |
| AAGAACGAAGGAUAUACAUGAGGAUCACCCAUGUAAAAGAAAGAGGGAAAAGAGAAAAGUAGAAGGUCGAAGAA [Ptolemy VIII Euergetes II] | 20.4 | 23.8 |
| AAGAACGGAGGAUAUACAUGAAAGAAAGAAAAGAAAAGAAAACAUGAGGAUCACCCAUGUAGAAGGCCGAAGAA [EteRNA is fun!] | 23.4 | 53.3 |
| AAGAAGCAAGGAUAUACAUGAGGAUCACCCAUGUAAAAGAAAGAAAAGGGAAAGAAAAGUAGAAGGUGCAAGAA [Menmaatre Seti I] | 21.6 | 27 |
| AAGAAGCGAGGAUAUACAUGAAAGAAAGAAAAGAAAAGAAAACAUGAGGAUCACCCAUGUAGAAGGCGCAAGAA [EteRNA is fun!] | 21.4 | 28.2 |
| AAGAAGCGAGGAUAUACAUGAGGAUCACCCAUGUAAAAGAAAGAAGGGAAAGAGAAAAGUAGAAGGCGCAAGAA [Hedjkheperre-setpenre Takelot II] | 70.7 | 109 |

| Sequence | apparent KD of MS2 coat protein (MS2 coat protein [1]) [nM] | apparent KD of MS2 coat protein (MS2 coat protein [2]) [nM] |
| --- | --- | --- |
| AAGAAGGAAGGAUAUACAUGAGGAUCACCCAUGUAAAAGAAAGAAAGGGAAAAGAAAAGUAGAAGGUCCAAGAA [Aakheperre Setepenre Osorkon] | 25.4 | 38.7 |
| AAGAAGGUAGGAUAUACUAAAGAAAUAAAAAUAAAUAAAGAACAUGAGGAUCACCCAUGUAGAAGGGCCAAGAA [Merkheperre] | 54.4 | 50.8 |
| AAGAAGUAAGGAUAUCGGAGAGAACAAGAAAGUGAAGAAUACGAGAAGGUACAUGAGGAUCACCCAUGUAAAGA [EXC - 4] | 26.9 | 19 |
| AAGAAGUCAGGAUAUCGAAGACUGUCGAAAAGACAGUCGAACGAGAAGGGACAUGAGGAUCACCCAUGUGGAAA [Marsurpial 65% 7] | 56.3 | 112 |
| AAGAAGUGAGGAUAUACAAAAUAAAAGAAAAGAAAGAAAGAACAUGAGGAUCACCCAUGUAGAAGGCGCAAGAA [Merhotepre Ini] | 24.5 | 24.9 |
| AAGAAUAGAGGAUAUACAAGGAAGAAAGAAAAGAAAAGAAAACAUGAGGAUCACCCAUGUAGAAGGCUAUAGAA [EteRNA is fun!] | 30.9 | 26.2 |
| AAGAGUAGAGGAUAUACAAAGGGAGAGUCGAAAGACUCAAAACAUGAGGAUCACCCAUGUAGAAGGCUACUCAA [Hyphema Seclusion Mod 62% 7] | 213 | 746 |
| AAGAGUAGAGGAUAUACAUAAAAAGAGUCGAAAGACUCGGGACAUGAGGAUCACCCAUGUAGAAGGCUACUCAA [Hyphema Seclusion Mod 62% 4] | 98.6 | 406 |
| AAGAUGUGAGGAUAUGCUGCUCGUCACAAAAGUGAUGAGUAGCAGAAGGUACAUGAGGAUCACCCAUGUAAAGA [JL eternac mod 7] | 32.4 | 20.9 |
| AAGGAUAGAGGAUAUACAUAGAUACAGAUUCAUGUAGAACUACAUGAGGAUCACCCAUGUAGAAGGCUAUCAUA [AJ 32] | 27.9 | 89.1 |
| AAGGGACAUGAGGAUCACCCAUGUCAGGAUAUCGGAAAAGGAAAAAAAAAAAAGAAGACGAGAAGGGACACCAA | 28.6 | 26.8 |
| AAGGUAUAAGGAUAUGCAUAGAUACAGACACAUGUUCAAGUACAUGAGGAUCACCCAUGUAGAAGGUAUAUAUA [AJ 12] | 32.2 | 26 |
| AAGUCGUGAGGAUAUACAUGGAUAUACAUUCAUGUGGACCUACAUGAGGAUCACCCAUGUAGAAGGCACGAAUA [AJ 49] | 35.2 | 53.5 |
| AAUAAACAUGAGGAUCACCCAUGUGAGGAUAUGGUAUUAUUAGGACAGUAAUGAUAUACCAGAAGGCACAAAUA [JR_Exc001_Sub1104] | 36.9 | 53.5 |
| AAUAAGUGAGGAUAUGUGAAUAGUAGAUAAGAUUCCCUAAAACAGAAGGCACAUGAGGAUCACCCAUGUAAAUA [JR_Exc004_Sub008] | 26.2 | 24.1 |
| AAUAGUGAAGGAUAUACUGGAGGAGUACGAUAAAAGAAAGAACAUGAGGAUCACCCAUGUAGAAGGUCAGAAGU [JR_Exc002_Sub1227] | 22.9 | 24.1 |
| ACAAAGUGAGGAUAUGCUAUCGUACAAUAUAGUUAUCGUAUGCAGAAGGCACAUGAGGAUCACCCAUGUAAGAA [Ex 4 Tesla 9] | 40.7 | 36.7 |
